For data set [1], the target named is T1, MQDWLTFQKKHI
T1 chain: MQDWLTFQKKHI

For data set [2], the target named is T2, MADY.
T2 chain: MADY

The target of data set [3] is T3, MADWLTFQKKHI
T3 chain: MADWLTFQKKHI

Data set [4] addresses T4, MQDYLT.
T4 chain: MQDYLT

Data set [5] concerns the target T5, MADYLT.
T5 chain: MADYLT

Numbering of substitutions follows the chain as printed. Numbers in names are those of the source.

B1: MetAP-GTG (protein)
chain: AISIKTPEDIEKMRVAGRLAAEVLEMIEPYVKPGVSTGELDRICNDYIVNEQHAVSACLGYHGYPKSVCISINEVVCHGIPDDAKLLKDGDIVNIDVTVIKDGFHGDTSKMFIVGKPTIMGERLCRITQESLYLALRMVKPGINLREIGAAIQKFVEAEGFSVVREGCGHGIGRGFHEEPQVLHYDSRETNVVLKPGMTFTIEPTVNAGKKEIRTMKDGWTVKTKDRSLSAGYEHTIVVTDNGCEILTLRKDDTIPAIISHDE
As for B1, the Specific activity (unit/mg) came out at 4.24 unit/mg in data set [1]; 1.68 unit/mg in data set [2]; 9.8 unit/mg in data set [3]; 0.23 unit/mg in data set [4]; 2.5 unit/mg in data set [5]. Further, the “specific activity relative to that for MADWLTFQKKHI” value in data set [1] is on record as “The specific activity of MetAP-GTG on the dodecapeptide MQDWLTFQKKHI is 43% of that for MADWLTFQKKHI”.

B2: MetAP-M206G-Q233G (protein)
chain: B1 chain with G167Y, T205G
For the protein B2, the Specific activity (unit/mg) in data set [1] was 0.5 unit/mg; in data set [2], 0.51 unit/mg; in data set [3], 3.28 unit/mg; in data set [4], 0.29 unit/mg; in data set [5] it was 0.29 unit/mg.

B3: MetAP-YMQ (wild type E. coli methionine aminopeptidase) (protein)
chain: B1 chain with G167Y, T205M, G232Q
For the protein B3, the Specific activity (unit/mg) is 0.62 unit/mg in data set [1]; 138 unit/mg in data set [2]; 85 unit/mg in data set [3]; 0.43 unit/mg in data set [4]; 138 unit/mg in data set [5].

B4: MetAP-M206T-Q233G (protein)
chain: B1 chain with G167Y
With B4, the Specific activity (unit/mg) came to 0.59 unit/mg in data set [1]; 72 unit/mg in data set [2]; 73 unit/mg in data set [3]; 0.42 unit/mg in data set [4]; 116 unit/mg in data set [5].

B5: MetAP-M206T-Q233T (protein)
chain: B1 chain with G167Y, G232T
Consider B5, for which the Specific activity (unit/mg) in data set [2] amounted to 0.38 unit/mg; in data set [4] it was 0.13 unit/mg; in data set [5], 0.12 unit/mg.

(Values after patent publication US20050214899.)
